The source of these data is patent US20110142851A1 (EMERGENT PRODUCT DEVELOPMENT SEATTLE, published 2011).

Assay [1] has as its target T1, recombinant human IL6 (human, UniProt P05231 30-212).
T1 construct: also called rhIL6; IL6 monomer
The experiment in a line: SPR Biacore, mAb captured by anti-mouse Fc, single cycle kinetics. For orientation: In SPR one partner is held on a chip, and binding of the other changes the refractive index at the surface.

Assay [2] has as its target T2, Hyper-IL6 (human).
T2 chain: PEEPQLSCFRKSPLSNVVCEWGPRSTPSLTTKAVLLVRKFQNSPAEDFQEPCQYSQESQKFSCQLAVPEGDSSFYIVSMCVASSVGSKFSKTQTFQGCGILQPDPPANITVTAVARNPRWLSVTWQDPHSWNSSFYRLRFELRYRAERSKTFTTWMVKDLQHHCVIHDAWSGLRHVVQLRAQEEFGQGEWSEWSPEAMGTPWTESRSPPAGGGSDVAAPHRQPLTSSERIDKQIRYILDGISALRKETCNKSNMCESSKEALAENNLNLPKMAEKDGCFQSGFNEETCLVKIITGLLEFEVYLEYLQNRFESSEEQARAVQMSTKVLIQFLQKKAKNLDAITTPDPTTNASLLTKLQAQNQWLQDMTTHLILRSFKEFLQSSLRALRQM
The experiment in a line: SPR Biacore, binder captured by anti-human Fc, HIL6 injected. The procedure:
(§1) Anti-IL6 binding domains were captured using immobilized anti-mouse Fc polyclonal antibody in the case of anti-IL6 antibodies, or an anti-human Fc monoclonal in the case of SMIPs, Xceptors, and humanized SMIPs. IL6 binding to the anti-IL6 binding domains was studied using single cycle kinetics. Five sequential injections of IL6 were made per cycle starting with the lowest concentration of IL6 (6.4 pM) and progressing to the highest concentration (4,000 pM). The flow rate was 45 μL per minute and each injection of IL6 lasted 7 minutes. At the end of the highest IL6 concentration injection, IL6 was allowed to dissociate for 30 minutes. The data were fit to a one-to-one binding single cycle kinetics model. HIL6 binding was studied by injecting a single concentration of HIL6 (from 6.4-4,000 pM) per cycle for 7 minutes, and then allowing the bound HIL6 to dissociate for either 30 seconds (0 to 800 pM) or one hour (0 and 4,000 pM). […] All analysis was performed using BIAevaluation software.

In assay [3] the target is T1, recombinant human IL6. The experiment in a line: SPR Biacore, binder captured by anti-human Fc, single cycle kinetics. The procedure: as §1
For the next assay, the target named is T3, hu HIL6 AFH monomer (human).
T3 chain: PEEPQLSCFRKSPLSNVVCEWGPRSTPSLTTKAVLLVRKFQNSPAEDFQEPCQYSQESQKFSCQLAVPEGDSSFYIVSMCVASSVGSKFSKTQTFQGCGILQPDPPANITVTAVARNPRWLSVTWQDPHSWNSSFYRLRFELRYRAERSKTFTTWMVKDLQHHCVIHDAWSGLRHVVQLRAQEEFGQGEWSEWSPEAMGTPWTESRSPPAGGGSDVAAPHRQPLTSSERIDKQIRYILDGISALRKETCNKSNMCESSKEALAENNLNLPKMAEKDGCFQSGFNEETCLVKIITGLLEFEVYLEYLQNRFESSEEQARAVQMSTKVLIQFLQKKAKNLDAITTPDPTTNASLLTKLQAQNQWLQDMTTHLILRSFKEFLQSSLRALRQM
The experiment in a line: SPR Biacore T100, binder captured by anti-human Fc.

For assay [4], the target named is T4, hu HIL6 Fc dimer (dimeric human HIL6/mouse IgG Fc fusion protein) (human).
T4 construct: also called human hyper-IL6 (IL6R-IL6-mIgG); dimeric HIL6
T4 chain: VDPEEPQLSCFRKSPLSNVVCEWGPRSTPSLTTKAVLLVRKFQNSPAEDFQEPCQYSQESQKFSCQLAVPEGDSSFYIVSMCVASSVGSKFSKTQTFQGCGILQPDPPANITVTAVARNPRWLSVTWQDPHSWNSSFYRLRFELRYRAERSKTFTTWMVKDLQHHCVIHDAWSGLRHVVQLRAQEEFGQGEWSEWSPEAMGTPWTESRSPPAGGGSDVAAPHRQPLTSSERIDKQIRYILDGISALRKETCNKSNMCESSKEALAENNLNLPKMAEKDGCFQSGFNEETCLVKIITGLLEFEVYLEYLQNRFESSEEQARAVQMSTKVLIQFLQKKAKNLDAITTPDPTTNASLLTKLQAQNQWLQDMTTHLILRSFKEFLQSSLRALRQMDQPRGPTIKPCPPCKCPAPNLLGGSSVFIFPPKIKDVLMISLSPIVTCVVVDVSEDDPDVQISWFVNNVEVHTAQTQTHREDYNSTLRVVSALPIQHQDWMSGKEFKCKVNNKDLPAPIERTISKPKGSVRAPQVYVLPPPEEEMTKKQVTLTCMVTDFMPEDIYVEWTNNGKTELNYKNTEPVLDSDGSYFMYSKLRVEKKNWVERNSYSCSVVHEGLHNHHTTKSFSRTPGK
The experiment in a line: SPR Biacore T100, binder captured by anti-human Fc.

Assay [5] has as its target T1, recombinant human IL6. As to the kind of experiment: SPR Biacore T100, binder captured by anti-human Fc.
The target of assay [6] is T2, Hyper-IL6. The experiment in a line: SPR Biacore, mAb captured by anti-mouse Fc, HIL6 injected.
The target of a further assay is T5, sIL6R Fc dimer (UniProt P08887 20-358, limits assumed).
T5 construct: not shown: Fc
T5 sequence (looked up): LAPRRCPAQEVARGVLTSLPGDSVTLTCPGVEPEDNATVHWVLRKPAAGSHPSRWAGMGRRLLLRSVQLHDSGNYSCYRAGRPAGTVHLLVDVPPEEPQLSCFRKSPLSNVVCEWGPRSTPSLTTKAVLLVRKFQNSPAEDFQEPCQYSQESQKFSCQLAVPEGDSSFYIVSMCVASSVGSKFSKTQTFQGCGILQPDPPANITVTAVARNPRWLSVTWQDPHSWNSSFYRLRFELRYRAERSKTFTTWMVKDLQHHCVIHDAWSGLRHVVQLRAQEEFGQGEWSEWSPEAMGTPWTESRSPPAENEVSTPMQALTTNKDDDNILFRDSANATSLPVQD
As to the kind of experiment: SPR Biacore T100, binder captured by anti-human Fc.

B1: CLB-8 mAb (antibody, V domains shown)
VH: EVQLVESGGKLLKPGGSLKLSCAASGFTFSSFAMSWFRQSPEKRLEWVAEISSGGSYTYYPDTVTGRFTISRDNAKNTLYLEMSSLRSEDTAMYYCARGLWGYYALDYWGQGTSVTVSS
VL: QIVLIQSPAIMSASPGEKVTMTCSASSSVSYMYWYQQKPGSSPRLLIYDTSNLASGVPVRFSGSGSGTSYSLTISRMEAEDAATYYCQQWSGYPYTFGGGTKLEIKR
What is called Kd is the constant that tells how readily two partners part at equilibrium. What is called koff is a measure of how fast the partners let go of each other. By kon is commonly meant the second-order rate constant of association. As to B1, in the assay with recombinant human IL6 [1], the Kd turned out to be 0.022 nM, the koff amounted to 5e-05 s⁻¹ and the kon is 2.3e+06 M⁻¹ s⁻¹.

B2: TRU(S6)-1063 (Fc fusion)
VH: EVQLVESGGGLVQPGGSLRLSCAASGFTFNTYAMNWVRQAPGKGLEWVGRTVTKSNKYATYYADSVSDRFTISRDDSKNSLYLQMNSLKTEDTAVYYCAREDYYGTLDYWGQGTLVTVSS
VL: EIVLTQSPATLSLSPGERATLSCRASESVHNFGISFMNWYQQKPGQAPRLLIYTASNQGSGIPARFSGSGSGTDFTLTISSLEPEDFAVYYCHQGKEVPWTFGQGTKVEIK
notes: Humanized SMIP fusion protein (single chain)
Regarding B2, in the assay with Hyper-IL6 [2], the Kd is 0.05 nM, the koff was found to be 0.00018 s⁻¹ and the kon turned out to be 3.6e+06 M⁻¹ s⁻¹. In the assay with recombinant human IL6 [3], the Kd turned out to be 0.051 nM, the koff is 0.00019 s⁻¹ and the kon is 3.9e+06 M⁻¹ s⁻¹.

B3: TRU(S6)-1064 (Fc fusion)
VH: EVQLVESGGGLVQPGGSLRLSCAASGFTFNTYAMNWVRQAPGKGLEWVGRTVTKSNKYATYYADSVSDRFTISRDDSKNSLYLQMNSLKTEDTAVYYCAREDYYGTLDYWGQGTLVTVSS
VL: DIVLTQSPASLAVSPGQRATITCRASESVHNFGISFMNWYQQKPGQPPKLLIYTASNQGSGVPARFSGSGSGTDFTLTINPVEANDTANYYCHQGKEVPWTFGQGTKVEIK
notes: as for B2
In the assay with Hyper-IL6 [2], B3 yielded a Kd of 0.046 nM, a koff of 0.00019 s⁻¹ and a kon of 4.1e+06 M⁻¹ s⁻¹. Moreover, in the assay with recombinant human IL6 [3], the equilibrium dissociation constant (Kd) worked out at 0.048 nM, the koff amounted to 0.0002 s⁻¹ and the kon turned out to be 4.2e+06 M⁻¹ s⁻¹.

B4: TRU(XT6)-1025 (Fc fusion)
chain: LPAQVAFTPYAPEPGSTCRLREYYDQTAQMCCSKCSPGQHAKVFCTKTSDTVCDSCEDSTYTQLWNWVPECLSCGSRCSSDQVETQACTREQNRICTCRPGWYCALSKQEGCRLCAPLRKCRPGFGVARPGTETSDVVCKPCAPGTFSNTTSSTDICRPHQICNVVAIPGNASMDAVCTSTSPTRSMAPGAVHLPQPVSTRSQHTQPTPEPSTAPSTSFLLPMGPSPPAEGSTGDTGEPKSSDKTHTCPPCPAPEAAGAPSVFLFPPKPKDTLMISRTPEVTCVVVDVSHEDPEVKFNWYVDGVEVHNAKTKPREEQYNSTYRVVSVLTVLHQDWLNGKAYACAVSNKALPAPIEKTISKAKGQPREPQVYTLPPSRDELTKNQVSLTCLVKGFYPSDIAVEWESNGQPENNYKTTPPVLDSDGSFFLYSKLTVDKSRWQQGNVFSCSVMHEALHNHYTQKSLSLSPGQRHNNSSLNTRTQKARHSPNSEVQLLESGGGLVQPGGSLRLSCAASGFTFSHYGMHWVRQAPGKGLEWVSSIYPGMTQYADSVKGRFTISRDNSKNTLYLQMNSLRAEDTAVYYCARDRGSGIDAFDIWGQGTMVTVSSGGGGSGGGGSGGGGSQSELTQPPSVSVSPGQTATVSCSGEKLGDRYAWWYQQKAGQSPVLVIYQDTKRPSGVPDRFSGSNSGTSASLVISGPQSEDEADYYCAAWDDSLKGVVFGGGSKLTVL
notes: Xceptor, TNFRSF1B ectodomain N-terminal, anti-IL6xR domain C-terminal
Turning to B4, the dissociation constant (Kd) with hu HIL6 AFH monomer stood at 6.3 nM; in assay [4], 25 nM. For the same molecule, in the assay with recombinant human IL6 [5], the binding result is reported as “no binding (tested: 100 nM)”.

B5: BSF2-77 mAb (antibody, V domains shown)
VH: QVQLQQPGAELVKPGASVKLSCKASGYIFTSYWMHWVKQRPGQGLEWIGEINPSNGRTNYNERFKSKATLTVDKSSSTAYIQLSSLTSDDSAVYYCSRSDTKATCDYWGQGTTLTVSS
VL: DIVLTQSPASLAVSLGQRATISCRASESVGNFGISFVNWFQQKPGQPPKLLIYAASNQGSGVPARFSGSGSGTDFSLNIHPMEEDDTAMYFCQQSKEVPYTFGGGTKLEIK
B5: in the assay with Hyper-IL6 [6], binding was put at a Kd of 0.444 nM, the koff is 0.00096 s⁻¹ and the kon turned out to be 2.2e+06 M⁻¹ s⁻¹. Besides, in the assay with recombinant human IL6 [1], the Kd was 0.41 nM, the koff was 0.002 s⁻¹ and the kon is 4.8e+06 M⁻¹ s⁻¹.

B6: TRU(XT6)-1029 (Fc fusion)
chain: LPAQVAFTPYAPEPGSTCRLREYYDQTAQMCCSKCSPGQHAKVFCTKTSDTVCDSCEDSTYTQLWNWVPECLSCGSRCSSDQVETQACTREQNRICTCRPGWYCALSKQEGCRLCAPLRKCRPGFGVARPGTETSDVVCKPCAPGTFSNTTSSTDICRPHQICNVVAIPGNASMDAVCTSTSPTRSMAPGAVHLPQPVSTRSQHTQPTPEPSTAPSTSFLLPMGPSPPAEGSTGDTGEPKSSDKTHTCPPCPAPEAAGAPSVFLFPPKPKDTLMISRTPEVTCVVVDVSHEDPEVKFNWYVDGVEVHNAKTKPREEQYNSTYRVVSVLTVLHQDWLNGKAYACAVSNKALPAPIEKTISKAKGQPREPQVYTLPPSRDELTKNQVSLTCLVKGFYPSDIAVEWESNGQPENNYKTTPPVLDSDGSFFLYSKLTVDKSRWQQGNVFSCSVMHEALHNHYTQKSLSLSPGQRHNNSSLNTRTQKARHSPNSEVQLLESGGGLVQPGGSLRLSCAASGFTFSSYWMHWVRQAPGKGLEWVSSIYPSGGSTEYADSVKGRFTISRDNSKNTLYLQMNSLRAEDTAVYYCAKGIWFDPWGQGTLVTVSSGGGGSGGGGSGGGGSQDIQMTQSPATLSASVGDRVTITCRSSQRISGYLNWYQQQPGKAPKLLIYAASTLQSGVPSRISGSGSGTDFSLIISSLQPEDVATYYCQQSYSPPFTFGQGTKVEIK
notes: as for B4
B6: the Kd with hu HIL6 AFH monomer amounted to 3000 nM; in assay [4], 49 nM. Also, the binding result with recombinant human IL6 [5] and with sIL6R Fc dimer was “no binding (tested: 100 nM)” throughout.

B7: AH-65 mAb (antibody, V domains shown)
VH: EVQLVESGGGLVQPKGTLRLSCAASGFSFNTYAMNWVRQAPGKSLEWVARTVTKSNKYATYYADSVSDRVTISREDSQSMLYLQMTNLKTEDTAMYYCVREDYYGTLDYWGQGTSVTVSS
VL: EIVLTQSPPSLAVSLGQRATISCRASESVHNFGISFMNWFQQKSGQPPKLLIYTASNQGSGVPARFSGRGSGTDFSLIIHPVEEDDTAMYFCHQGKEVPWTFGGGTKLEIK
Consider B7, for which, in the assay with Hyper-IL6 [6], the affinity, expressed as Kd, was 0.012 nM; the off-rate constant (koff) was found to be 2.4e-05 s⁻¹; the kon was found to be 2e+06 M⁻¹ s⁻¹. Besides, in the assay with recombinant human IL6 [1], the Kd was 0.007 nM, the koff amounted to 2.2e-05 s⁻¹ and the kon worked out at 3.2e+06 M⁻¹ s⁻¹.
